Laboratory results taken from patent publication US20130280784A1, “ESCHERICHIA COLI EXPRESSION SYSTEM FOR PRODUCING MATURE HUMAN TYROSINASE AND A PRODUCING METHOD THEREOF” (PROVIDENCE UNIVERSITY, priority 2012, published 2013).

T1: tyrosinase of B16 mouse melanoma cells (Mus musculus, UniProt P11344)
T1 construct: tyrosinase of B16 mouse melanoma cells; host or cells: B16 mouse melanoma cells
T1 sequence (P11344 19-533): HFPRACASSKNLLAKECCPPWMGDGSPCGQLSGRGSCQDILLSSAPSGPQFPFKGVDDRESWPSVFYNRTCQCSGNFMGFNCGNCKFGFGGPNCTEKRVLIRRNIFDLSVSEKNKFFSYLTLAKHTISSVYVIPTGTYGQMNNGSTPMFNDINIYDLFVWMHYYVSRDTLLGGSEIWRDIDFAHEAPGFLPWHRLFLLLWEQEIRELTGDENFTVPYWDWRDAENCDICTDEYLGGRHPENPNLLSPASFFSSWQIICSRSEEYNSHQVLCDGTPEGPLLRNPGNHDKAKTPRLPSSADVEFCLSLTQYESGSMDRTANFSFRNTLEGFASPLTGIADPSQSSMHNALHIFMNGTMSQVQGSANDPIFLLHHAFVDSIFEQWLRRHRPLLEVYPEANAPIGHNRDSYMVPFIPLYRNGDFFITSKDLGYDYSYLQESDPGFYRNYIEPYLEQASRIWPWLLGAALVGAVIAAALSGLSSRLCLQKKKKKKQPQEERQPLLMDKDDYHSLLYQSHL


Columns and labels:
[1] = test system: tyrosinase isolated from Agaricus bisporus; settings: cited from earlier work
[2] = molecular target: T1, tyrosinase of B16 mouse melanoma cells; settings: cited from earlier work
[3] = enzyme activity assay of refolded recombinant human tyrosinase with L-Dopa as enzyme substrate (A475); assay type: biochemical; settings: for Specificity / Total enzyme activity: 10 L of the starting material, L-Dopa as enzyme substrate
Procedure: In order to analyze the enzyme activity of the aforementioned refolded recombinant human tyrosinase, […] of 50 mM PBS buffer (pH 7.0), and […] crude extract containing refolded recombinant human tyrosinase were mixed and left standing for 5 minutes at 37° C. Subsequently, […] L-Dopa was added (to a final concentration of 3 mM) to the mixture as an enzyme substrate and reacted for 30 minutes at 37° C. The absorbance at A475 was measured using a spectrophotometer.
The final yield of the purification, the total amount of the proteins, the enzyme activity and the analysis of the specificity were summarized in Table 1. Table 1 summarizes the results of 10 L of the starting material, and L-Dopa was used as an enzyme substrate in the enzyme activity assay.

Specificity [3] [units/mg]	Molecule	Total enzyme activity [3] [units]	other results
	α-arbutin		inhibitory effects on tyrosinase [1]: does not exhibit any inhibitory effects; inhibition of tyrosinase [2]: significantly inhibits
	recombinant human tyrosinase: mature human tyrosinase of 512 amino acids, about 57 kDa, expressed in E. coli BL21(DE3)/pET-23a(+)-RHT and refolded (protein, UniProt P14679 19-529, looked up) Tyrosinase: HFPRACVSSKNLMEKECCPPWSGDRSPCGQLSGRGSCQNILLSNAPLGPQFPFTGVDDRESWPSVFYNRTCQCSGNFMGFNCGNCKFGFWGPNCTERRLLVRRNIFDLSAPEKDKFFAYLTLAKHTISSDYVIPIGTYGQMKNGSTPMFNDINIYDLFVWMHYYVSMDALLGGSEIWRDIDFAHEAPAFLPWHRLFLLRWEQEIQKLTGDENFTIPYWDWRDAEKCDICTDEYMGGQHPTNPNLLSPASFFSSWQIVCSRLEEYNSHQSLCNGTPEGPLRRNPGNHDKSRTPRLPSSADVEFCLSLTQYESGSMDKAANFSFRNTLEGFASPLTGIADASQSSMHNALHIYMNGTMSQVQGSANDPIFLLHHAFVDSIFEQWLRRHRPLQEVYPEANAPIGHNRESYMVPFIPLYRNGDFFISSKDLGYDYSYLQDSDPDSFQDYIKSYLEQASRIWSWLLGAAMVGAVLTALLAGLVSLLCRHKRKQLPEEKQPLLMEKEDYHSLYQSHL		tyrosinase activity ([3]; after isolation from the crude extract using ion-exchange chromatography): 15.5 units/mg; tyrosinase activity ([3]; by using gel filtration chromatography): 57.7 units 1 mg
57.7	Gel filtration: recombinant human tyrosinase fractions after Sephacryl S-100 HR gel filtration chromatography (protein, UniProt P14679 19-529, looked up) Tyrosinase: HFPRACVSSKNLMEKECCPPWSGDRSPCGQLSGRGSCQNILLSNAPLGPQFPFTGVDDRESWPSVFYNRTCQCSGNFMGFNCGNCKFGFWGPNCTERRLLVRRNIFDLSAPEKDKFFAYLTLAKHTISSDYVIPIGTYGQMKNGSTPMFNDINIYDLFVWMHYYVSMDALLGGSEIWRDIDFAHEAPAFLPWHRLFLLRWEQEIQKLTGDENFTIPYWDWRDAEKCDICTDEYMGGQHPTNPNLLSPASFFSSWQIVCSRLEEYNSHQSLCNGTPEGPLRRNPGNHDKSRTPRLPSSADVEFCLSLTQYESGSMDKAANFSFRNTLEGFASPLTGIADASQSSMHNALHIYMNGTMSQVQGSANDPIFLLHHAFVDSIFEQWLRRHRPLQEVYPEANAPIGHNRESYMVPFIPLYRNGDFFISSKDLGYDYSYLQDSDPDSFQDYIKSYLEQASRIWSWLLGAAMVGAVLTALLAGLVSLLCRHKRKQLPEEKQPLLMEKEDYHSLYQSHL	144.3	
15.5	DEAE ion-exchange: recombinant human tyrosinase fractions after DEAE sepharose Fast Flow ion-exchange chromatography (protein, UniProt P14679 19-529, looked up) Tyrosinase: HFPRACVSSKNLMEKECCPPWSGDRSPCGQLSGRGSCQNILLSNAPLGPQFPFTGVDDRESWPSVFYNRTCQCSGNFMGFNCGNCKFGFWGPNCTERRLLVRRNIFDLSAPEKDKFFAYLTLAKHTISSDYVIPIGTYGQMKNGSTPMFNDINIYDLFVWMHYYVSMDALLGGSEIWRDIDFAHEAPAFLPWHRLFLLRWEQEIQKLTGDENFTIPYWDWRDAEKCDICTDEYMGGQHPTNPNLLSPASFFSSWQIVCSRLEEYNSHQSLCNGTPEGPLRRNPGNHDKSRTPRLPSSADVEFCLSLTQYESGSMDKAANFSFRNTLEGFASPLTGIADASQSSMHNALHIYMNGTMSQVQGSANDPIFLLHHAFVDSIFEQWLRRHRPLQEVYPEANAPIGHNRESYMVPFIPLYRNGDFFISSKDLGYDYSYLQDSDPDSFQDYIKSYLEQASRIWSWLLGAAMVGAVLTALLAGLVSLLCRHKRKQLPEEKQPLLMEKEDYHSLYQSHL	1383.1	
